Read-outs that look alike come from different tables or passages of the source. Where only a bound is given, the exact number is not on record here.

For series [1], the target named is M.SssI Q142A/N370A Q142A,N370A (Spiroplasma sp.?) (UniProt P15840).
In the next series the target is T1, M.HpaII (original) (UniProt P15446).
T1 sequence: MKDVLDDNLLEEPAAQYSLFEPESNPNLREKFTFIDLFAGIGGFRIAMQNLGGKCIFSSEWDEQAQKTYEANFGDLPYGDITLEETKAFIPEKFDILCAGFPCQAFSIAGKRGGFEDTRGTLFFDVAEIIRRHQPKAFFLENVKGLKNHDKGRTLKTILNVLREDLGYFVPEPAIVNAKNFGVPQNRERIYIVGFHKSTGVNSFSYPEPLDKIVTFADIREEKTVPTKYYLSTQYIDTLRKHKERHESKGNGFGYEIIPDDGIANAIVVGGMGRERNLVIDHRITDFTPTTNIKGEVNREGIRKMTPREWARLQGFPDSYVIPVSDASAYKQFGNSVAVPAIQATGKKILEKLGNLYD
The settings on record: ~2 orders of magnitude lower transalkylation than double mutant.

For series [2], the target named is M.SssI (original) (Spiroplasma sp.?) (UniProt P15840). The settings on record: transalkylation ~2 orders of magnitude lower than double mutant; AdoMet analogs; DNA for this comparison not explicitly stated.
The target in series [3] is M.SssI Q142A/N370A Q142A,N370A (Spiroplasma sp.?) (UniProt P15840). The settings on record: Ado-11-amine 160-320 uM, no Mg, MTase:DNA 3.6:1, Hin6I protection.
Series [4] shares this target. The settings on record: Ado-6-amine 40 uM, Hin6I protection.

Sequence of M.SssI Q142A/N370A Q142A,N370A (Spiroplasma sp.?) (P15840 whole entry Q142A/N370A): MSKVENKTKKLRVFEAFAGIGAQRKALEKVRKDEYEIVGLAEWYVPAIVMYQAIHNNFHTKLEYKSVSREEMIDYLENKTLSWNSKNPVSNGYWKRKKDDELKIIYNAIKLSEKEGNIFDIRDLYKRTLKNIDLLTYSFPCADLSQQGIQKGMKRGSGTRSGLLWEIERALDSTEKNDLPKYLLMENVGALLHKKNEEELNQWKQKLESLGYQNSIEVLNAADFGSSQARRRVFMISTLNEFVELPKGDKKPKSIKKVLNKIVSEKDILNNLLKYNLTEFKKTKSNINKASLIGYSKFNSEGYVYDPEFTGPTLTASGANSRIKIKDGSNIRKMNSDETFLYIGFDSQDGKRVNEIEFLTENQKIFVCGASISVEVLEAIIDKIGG
Sequence of M.SssI (original) (Spiroplasma sp.?) (P15840 whole entry): as the sequence (P15840 whole entry Q142A/N370A) above, with A142Q, A370N counted along it

“Control-Sss nonspecific fragment (no target sites)”: the activity in series [1] (nonspecific probe, same conditions) was < 1 % recovered.
With “Control-Sss specific fragment (two SssI sites)”, in series [1] (Ado-6-amine 50 uM, 1450 nM enzyme, 37 C 30 min, with human genomic DNA), the activity is 80 % recovered.
As for DNA with CCGG sites (unspecified), the binding signal (fold of Q104A/N335A) with M.HpaII (original) turned out to be 0.01.
As to 1343 bp DNA fragment with 18 SssI sites, in series [2], the binding signal (fold of Q142A/N370A) came out at 0.01. Moreover, the activity in series [3] is 50 % protected; in series [4] (10 mM MgCl2, MTase:DNA 2:1, 37 C 2 h), 30 % protected; in series [4] (no MgCl2, MTase:DNA 2:1, 37 C 2 h), 70 % protected.

These data come from patent US20130130922.
